In patent publication US20150239981A1 (Hoffmann-La Roche, published 2015):

B1: CD9 antibody IgG1-LALA (mAb 40A746.2.3) (antibody)
heavy: not shown
light: DIQMTQTTSSLSASLGDRVTISCSASQGISNYLNWYQQKPDGNVKLLIYYTSSLHSGVPSRFSGSGSGTDYSLTISNLEPEDIATYYCQQYSKLPYTFGGGTKLEIKRTVAAPSVFIFPPSDEQLKSGTASVVCLLNNFYPREAKVQWKVDNALQSGNSQESVTEQDSKDSTYSLSSTLTLSKADYEKHKVYACEVTHQGLSSPVTKSFNRGEC
notes: also called chim-hu-IgG1-LALA
B2: CD9 antibody IgG1-P329G (mAb 40A746.2.3) (antibody)
heavy: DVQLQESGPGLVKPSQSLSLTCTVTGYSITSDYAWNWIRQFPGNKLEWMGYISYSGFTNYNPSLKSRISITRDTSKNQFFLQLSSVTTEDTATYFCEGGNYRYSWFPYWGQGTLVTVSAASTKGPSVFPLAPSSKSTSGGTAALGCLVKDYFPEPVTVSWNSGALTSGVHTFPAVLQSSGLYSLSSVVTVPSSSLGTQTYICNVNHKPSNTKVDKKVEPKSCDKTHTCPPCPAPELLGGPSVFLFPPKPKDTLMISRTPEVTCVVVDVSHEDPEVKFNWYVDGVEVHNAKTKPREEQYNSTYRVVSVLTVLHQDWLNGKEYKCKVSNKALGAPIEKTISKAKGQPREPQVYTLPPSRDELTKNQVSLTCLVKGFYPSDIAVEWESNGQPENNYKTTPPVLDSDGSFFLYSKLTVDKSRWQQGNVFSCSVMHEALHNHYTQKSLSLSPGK
light: B1 light
notes: also called chim-hu-IgG-WT-P329G; TA IgG1 P329G
B3: CD9 antibody IgG4-SPLE (mAb 40A746.2.3) (antibody)
heavy: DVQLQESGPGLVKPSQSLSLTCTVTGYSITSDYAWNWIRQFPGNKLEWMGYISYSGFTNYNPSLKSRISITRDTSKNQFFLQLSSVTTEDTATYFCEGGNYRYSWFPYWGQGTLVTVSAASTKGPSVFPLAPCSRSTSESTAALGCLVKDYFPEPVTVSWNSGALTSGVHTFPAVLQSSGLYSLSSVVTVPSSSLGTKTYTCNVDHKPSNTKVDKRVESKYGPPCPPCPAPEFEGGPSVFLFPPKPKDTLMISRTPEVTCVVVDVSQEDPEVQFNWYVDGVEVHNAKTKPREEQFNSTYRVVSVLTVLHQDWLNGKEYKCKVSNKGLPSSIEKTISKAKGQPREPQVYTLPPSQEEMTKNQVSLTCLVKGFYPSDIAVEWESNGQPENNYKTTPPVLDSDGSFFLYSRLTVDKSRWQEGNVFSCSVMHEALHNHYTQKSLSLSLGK
light: B1 light
notes: also called chim-hu-IgG4-SPLE

Assays:
[1] = target: T1, FcγRIIIA-V158 (human, UniProt P08637 17-208, limits assumed); assay: SPR Biacore, antibody immobilised, receptor as analyte, FIG. 1e
T1 construct: Soluble analyte in SPR, 0 to 12800 nM; construct not described; also called FcγRIIIA receptor
T1 sequence (P08637 17-208 F176V limits assumed): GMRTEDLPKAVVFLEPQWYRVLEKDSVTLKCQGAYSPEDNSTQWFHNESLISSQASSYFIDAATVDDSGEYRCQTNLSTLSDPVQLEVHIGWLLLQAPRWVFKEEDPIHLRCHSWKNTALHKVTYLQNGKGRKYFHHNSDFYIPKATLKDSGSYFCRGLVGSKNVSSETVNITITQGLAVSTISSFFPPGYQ
Description: (§1) Binding affinities of different FcγRs towards immunoglobulins were measured by Surface Plasmon Resonance (SPR) using a Biacore T100 instrument (GE Healthcare) at 25° C.

[2] = target: T2, FcγRI (human, UniProt P12314 16-288, limits assumed); assay: SPR Biacore, FIG. 1b
T2 construct: also called FcγR1; FcγRI receptor
T2 sequence (P12314 16-288 limits assumed): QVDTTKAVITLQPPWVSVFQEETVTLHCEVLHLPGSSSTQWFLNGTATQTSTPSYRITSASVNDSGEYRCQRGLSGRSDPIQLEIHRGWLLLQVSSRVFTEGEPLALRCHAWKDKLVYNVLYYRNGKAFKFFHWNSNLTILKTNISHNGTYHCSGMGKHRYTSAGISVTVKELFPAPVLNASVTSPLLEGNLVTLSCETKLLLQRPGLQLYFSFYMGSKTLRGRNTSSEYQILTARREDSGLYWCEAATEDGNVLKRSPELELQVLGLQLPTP
Description: as §1

Binder | binding result [1] | binding result [2]
B1 | binds | binds
B2 |  | binds
B3 | binds | binds
